Experimental data as given in publication PMC8476643 (Nature Communications, 2021).

How the values were obtained:
[1] = biological target: T1, SARS-CoV-2 two-proline stabilized S trimer (S-2P) (SARS-CoV-2 Wuhan-Hu-1 (GenBank …, UniProt P0DTC2, stabilised)); assay: SPR; conditions: both partners purified
T1 construct: also called SARS-CoV-2 S-2P

[2] = biological target: T1, SARS-CoV-2 two-proline stabilized S …; assay: SPR; conditions: both partners purified; remark: listed apart in the source

Binder	Kd [1]	Kd [2]	koff [2]	kon [2]
7D6 monoclonal antibody (antibody, V domains shown, also called mAb 7D6; source: mouse hybridoma, ascites, purified (protein A agarose); copies: 2 + 2) VH: EVQLQQSGAELVRPGASVKLSCTASGFNIKDTYIHWVKQRPEQGLEWIGRIDPGDGDTEYDPSFQGKATITADTSSNTAYLELSSLTSEDTAVYYCTRFYDYVDYGMDYWGQGTSVTVSS VL: DIQMTQSPASLSASVGETVTITCRASGNIHNYLAWYQQKQGKSPQLLVYNAKTLADGVPSRFSGSGSGTQYSLKINSLQPEDFGSYYCQHFWSTPPWTFGGGTKLEVK	5.8 nM	5.89 nM	8.81e-05 s⁻¹	15200 M⁻¹ s⁻¹
6D6 monoclonal antibody (antibody, V domains shown, also called mAb 6D6; source: mouse hybridoma, ascites, purified (protein A agarose); copies: 2 + 2) VH: EVQLQQSGAELVKPGASVKLSCTTSGFNIIDTYMHWVKQRPEEGLEWIGGIDPVNGNSEYDPKFQDKATITADTSSNTAYLHLSRLTSEDTAVYYCASAHYYGSSSSFPYWGQGTLVTVSA VL: DIVMTQSQKFMSTSVGDRVSVTCKASQNVGTHVAWYQQKPGQSPKALIYSASYRYSGVPDRFTGSGVGTDFTLTITNVQSEDLAEYFCQQYNSYFTFGSGTKLEIK		0.03 nM	4.2e-06 s⁻¹	123000 M⁻¹ s⁻¹
